The text below walks through data of patent publication US20140087995A1 (published 2014).

The target in this test is T1, human amylin receptor (human, UniProt P30988 25-474; O60896 24-148, limits assumed).
T1 construct: whole, on cells; Calcitonin receptor plus RAMP-3 gives the amylin 3(a) receptor; membranes of Amylin 3(a)/CRE-luc cells were used; also called hAmylin-R; hAmylinR
T1 sequence (looked up) 1: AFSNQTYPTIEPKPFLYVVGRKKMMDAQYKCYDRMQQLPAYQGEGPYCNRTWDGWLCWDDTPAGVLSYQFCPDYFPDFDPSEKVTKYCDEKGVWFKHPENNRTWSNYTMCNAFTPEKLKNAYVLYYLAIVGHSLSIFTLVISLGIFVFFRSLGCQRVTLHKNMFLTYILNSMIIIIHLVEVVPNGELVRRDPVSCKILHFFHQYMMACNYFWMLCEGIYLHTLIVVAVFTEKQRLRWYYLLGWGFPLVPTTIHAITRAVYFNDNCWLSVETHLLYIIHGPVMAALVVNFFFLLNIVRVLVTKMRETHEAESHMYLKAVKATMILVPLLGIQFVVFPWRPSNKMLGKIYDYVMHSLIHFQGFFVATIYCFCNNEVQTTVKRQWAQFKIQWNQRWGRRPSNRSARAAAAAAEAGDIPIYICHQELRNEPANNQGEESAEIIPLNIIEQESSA
T1 sequence (looked up) 2: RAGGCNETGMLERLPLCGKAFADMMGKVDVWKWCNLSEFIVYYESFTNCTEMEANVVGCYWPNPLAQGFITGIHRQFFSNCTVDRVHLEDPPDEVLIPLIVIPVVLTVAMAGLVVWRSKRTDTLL
The test is described as follows: SPA competition binding, displacement of 125I-rat amylin from membranes with human amylin 3(a) receptor (Assay V). In outline:
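SPA beads + BHK amylin 3(a)/CRE-luc membranes, 35 ng/μL final; buffer 50 mM Hepes pH 7.4, 1 mM CaCl2, 5 mM MgCl₂, 0.1% OA, 0.02% Tween20. 120 min, 25° C, shaken; scintillation count. IC₅₀ by one-site binding competition fit, taken as receptor affinity.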
(In general: Displacement assays read how much labelled ligand stays bound in the presence of the test substance.)

Numbered stars: 1 amine (or outer) side, 2 acyl side, 3 side chain; on linkers, the order of the positions; unused ones are H or OH. Bridge positions count the residues as written; N and C are the ends. Side chains are listed from the residue outwards. Ends that are not written are not given here. * marks the point of attachment. C20 diacid = O=C(O)CCCCCCCCCCCCCCCCCCC(=O)*; γGlu = O=C(O)[C@H](CCC(=O)[*:2])N[*:1]; AEEA = NCCOCCOCC(=O)O

B1: N^ε1-[2-[2-[2-[[(4S)-4-carboxy-4-(19-carboxynonadecanoylamino)butanoyl]amino]ethoxy]ethoxy]acetyl]-[His14,Arg17,Pro21,Pro27]-h-amylin (peptide)
peptide: K([AEEA-γGlu-C20 diacid])CNTATCATQRLAHFLRHSSPNFGAIPSSTNVGSNTY-NH2
modifications: disulfide 2-7; N-terminus assumed
SMILES: CC[C@H](C)[C@H](NC(=O)[C@H](C)NC(=O)CNC(=O)[C@H](Cc1ccccc1)NC(=O)[C@H](CC(N)=O)NC(=O)[C@@H]1CCCN1C(=O)[C@H](CO)NC(=O)[C@H](CO)NC(=O)[C@H](Cc1c[nH]cn1)NC(=O)[C@H](CCCNC(=N)N)NC(=O)[C@H](CC(C)C)NC(=O)[C@H](Cc1ccccc1)NC(=O)[C@H](Cc1c[nH]cn1)NC(=O)[C@H](C)NC(=O)[C@H](CC(C)C)NC(=O)[C@H](CCCNC(=N)N)NC(=O)[C@H](CCC(N)=O)NC(=O)[C@@H](NC(=O)[C@H](C)NC(=O)[C@@H]1CSSC[C@H](NC(=O)[C@@H](N)CCCCNC(=O)COCCOCCNC(=O)CC[C@H](NC(=O)CCCCCCCCCCCCCCCCCCC(=O)O)C(=O)O)C(=O)N[C@@H](CC(N)=O)C(=O)N[C@@H]([C@@H](C)O)C(=O)N[C@@H](C)C(=O)N[C@@H]([C@@H](C)O)C(=O)N1)[C@@H](C)O)C(=O)N1CCC[C@H]1C(=O)N[C@@H](CO)C(=O)N[C@@H](CO)C(=O)N[C@H](C(=O)N[C@@H](CC(N)=O)C(=O)N[C@H](C(=O)NCC(=O)N[C@@H](CO)C(=O)N[C@@H](CC(N)=O)C(=O)N[C@H](C(=O)N[C@@H](Cc1ccc(O)cc1)C(N)=O)[C@@H](C)O)C(C)C)[C@@H](C)O
notes: also called 14H, 17R, 21P, 27P
With B1, the IC50 was found to be 133 pM.

B2: N^ε1-[2-[2-[2-[[(4S)-4-carboxy-4-(19-carboxynonadecanoylamino)butanoyl]amino]ethoxy]ethoxy]acetyl]-[Lys14,Arg17,Pro21,Pro27,Pro31]-h-amylin (peptide)
peptide: K([AEEA-γGlu-C20 diacid])CNTATCATQRLAKFLRHSSPNFGAIPSSTPVGSNTY-NH2
modifications: disulfide 2-7; N-terminus assumed
SMILES: CC[C@H](C)[C@H](NC(=O)[C@H](C)NC(=O)CNC(=O)[C@H](Cc1ccccc1)NC(=O)[C@H](CC(N)=O)NC(=O)[C@@H]1CCCN1C(=O)[C@H](CO)NC(=O)[C@H](CO)NC(=O)[C@H](Cc1c[nH]cn1)NC(=O)[C@H](CCCNC(=N)N)NC(=O)[C@H](CC(C)C)NC(=O)[C@H](Cc1ccccc1)NC(=O)[C@H](CCCCN)NC(=O)[C@H](C)NC(=O)[C@H](CC(C)C)NC(=O)[C@H](CCCNC(=N)N)NC(=O)[C@H](CCC(N)=O)NC(=O)[C@@H](NC(=O)[C@H](C)NC(=O)[C@@H]1CSSC[C@H](NC(=O)[C@@H](N)CCCCNC(=O)COCCOCCNC(=O)CC[C@H](NC(=O)CCCCCCCCCCCCCCCCCCC(=O)O)C(=O)O)C(=O)N[C@@H](CC(N)=O)C(=O)N[C@@H]([C@@H](C)O)C(=O)N[C@@H](C)C(=O)N[C@@H]([C@@H](C)O)C(=O)N1)[C@@H](C)O)C(=O)N1CCC[C@H]1C(=O)N[C@@H](CO)C(=O)N[C@@H](CO)C(=O)N[C@H](C(=O)N1CCC[C@H]1C(=O)N[C@H](C(=O)NCC(=O)N[C@@H](CO)C(=O)N[C@@H](CC(N)=O)C(=O)N[C@H](C(=O)N[C@@H](Cc1ccc(O)cc1)C(N)=O)[C@@H](C)O)C(C)C)[C@@H](C)O
notes: also called 14K, 17R, 21P, 27P, 31P
As to B2, the 50% inhibitory concentration (IC50) is 791 pM.

As usually defined, the IC50 is the concentration needed to halve the response being measured. A low value points to inhibition by little substance.
